Experimental findings from US20130064826A1 (KALOBIOS PHARMACEUTICALS, published 2013) are described below.

One assay has as its target T1, CD97 (UniProt P48960 21-552, limits assumed).
T1 sequence (looked up): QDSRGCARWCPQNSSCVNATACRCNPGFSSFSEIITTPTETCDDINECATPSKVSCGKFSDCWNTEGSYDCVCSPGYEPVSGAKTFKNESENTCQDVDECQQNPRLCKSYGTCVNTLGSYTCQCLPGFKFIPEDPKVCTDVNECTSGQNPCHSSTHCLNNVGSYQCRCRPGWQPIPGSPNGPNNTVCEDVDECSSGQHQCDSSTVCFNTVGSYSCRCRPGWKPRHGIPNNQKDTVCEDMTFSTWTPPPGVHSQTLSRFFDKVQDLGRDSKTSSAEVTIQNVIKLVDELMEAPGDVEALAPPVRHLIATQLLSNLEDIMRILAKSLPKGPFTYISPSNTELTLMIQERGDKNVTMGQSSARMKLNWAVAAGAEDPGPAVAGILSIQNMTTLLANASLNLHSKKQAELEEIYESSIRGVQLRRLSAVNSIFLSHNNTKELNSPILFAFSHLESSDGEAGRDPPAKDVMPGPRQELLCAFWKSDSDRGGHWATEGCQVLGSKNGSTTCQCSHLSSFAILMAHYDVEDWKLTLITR
The assay can be described thus: not described.

The target of the next assay is T2, EMR2 (UniProt Q9UHX3 24-540, limits assumed).
T2 sequence (looked up): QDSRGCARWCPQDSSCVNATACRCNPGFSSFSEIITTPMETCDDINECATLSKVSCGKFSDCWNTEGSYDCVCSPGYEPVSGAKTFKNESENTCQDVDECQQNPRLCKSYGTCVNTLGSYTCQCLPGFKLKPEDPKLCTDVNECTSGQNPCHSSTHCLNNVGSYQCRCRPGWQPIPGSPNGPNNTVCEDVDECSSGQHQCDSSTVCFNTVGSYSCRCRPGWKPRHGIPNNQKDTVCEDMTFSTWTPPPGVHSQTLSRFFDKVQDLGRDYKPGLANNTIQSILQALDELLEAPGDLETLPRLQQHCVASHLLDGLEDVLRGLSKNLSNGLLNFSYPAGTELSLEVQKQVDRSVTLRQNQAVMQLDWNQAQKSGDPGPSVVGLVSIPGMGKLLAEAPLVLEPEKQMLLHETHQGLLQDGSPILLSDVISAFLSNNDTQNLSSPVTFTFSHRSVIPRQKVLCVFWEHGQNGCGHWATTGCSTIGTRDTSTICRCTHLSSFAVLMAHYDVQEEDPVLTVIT
The assay can be described thus: not described.

Assay [1] addresses T3, EMR1 on human eosinophils (human, UniProt Q14246 21-886).
T3 construct: whole, on cells
T3 sequence (looked up): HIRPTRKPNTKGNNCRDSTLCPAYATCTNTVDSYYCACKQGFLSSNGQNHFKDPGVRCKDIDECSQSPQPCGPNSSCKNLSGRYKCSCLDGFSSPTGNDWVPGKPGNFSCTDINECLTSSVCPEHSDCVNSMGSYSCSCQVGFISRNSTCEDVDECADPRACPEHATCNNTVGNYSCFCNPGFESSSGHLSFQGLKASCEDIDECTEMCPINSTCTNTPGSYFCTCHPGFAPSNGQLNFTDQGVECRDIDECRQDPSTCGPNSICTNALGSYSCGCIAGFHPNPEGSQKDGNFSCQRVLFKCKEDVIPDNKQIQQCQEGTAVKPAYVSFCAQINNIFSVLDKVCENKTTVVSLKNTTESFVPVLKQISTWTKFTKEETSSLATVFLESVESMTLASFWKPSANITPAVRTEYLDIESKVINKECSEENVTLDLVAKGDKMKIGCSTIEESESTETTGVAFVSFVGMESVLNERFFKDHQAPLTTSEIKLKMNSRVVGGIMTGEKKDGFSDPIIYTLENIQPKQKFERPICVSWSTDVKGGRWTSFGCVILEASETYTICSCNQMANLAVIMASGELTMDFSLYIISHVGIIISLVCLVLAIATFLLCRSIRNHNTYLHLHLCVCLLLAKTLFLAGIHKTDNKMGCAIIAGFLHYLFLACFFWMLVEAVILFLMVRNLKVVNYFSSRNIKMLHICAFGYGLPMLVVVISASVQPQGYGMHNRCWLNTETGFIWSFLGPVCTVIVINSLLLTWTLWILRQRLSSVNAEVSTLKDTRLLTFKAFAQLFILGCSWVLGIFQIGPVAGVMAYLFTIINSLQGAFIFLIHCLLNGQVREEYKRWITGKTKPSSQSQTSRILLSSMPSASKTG
The assay can be described thus: flow cytometry on human eosinophils. As for the experimental part: Splenic B cells from mice immunized with purified human EMR1-Fc fusion protein were fused with SP2/0-Ag14 cells to generate hybridoma cell lines. Supernatants containing antibody from monoclonal lines were tested for binding to recombinant human EMR1 by ELISA. Antibodies that bound EMR1 were tested for binding to human eosinophils by flow cytometry. Polymorphonuclear-cell rich fractions from buffy coat blood were obtained by Ficoll gradient centrifugation and residual red blood cells were lysed with ammonium chloride (ACK lysis buffer). Eosinophils were isolated by negative selection using a MACS eosinophil isolation kit (Miltenyi) and incubated with 10 μg/ml rat IgG and 2% BSA to block nonspecific IgG binding before addition of anti-EMR1 antibody or isotype control antibody. Anti-mouse FITC antibody was used for detection of bound antibodies on a FACSCalibur flow cytometer.
In general terms: A flow cytometer gives signals particle by particle.

A further assay concerns the target T4, Peptide 1.
T4 construct: also called 27 mer; EMR1 ELD-6 271-297
T4 peptide: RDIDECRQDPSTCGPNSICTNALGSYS
Briefly: biolayer interferometry (ForteBio Octet). A general note: Biolayer interferometry detects binding as a change in optical thickness at a sensor tip.

A further assay deals with T5, Peptide 4.
T5 construct: also called 20 mer; EMR1 ELD-6 271-290
T5 peptide: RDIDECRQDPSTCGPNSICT
Briefly: biolayer interferometry (ForteBio Octet).

A further assay has as its target T6, Peptide 7.
T6 construct: also called 18 mer; EMR1 ELD-6 271-288
T6 peptide: RDIDECRQDPSTCGPNSI
Briefly: biolayer interferometry (ForteBio Octet).

B1: monoclonal antibody 19-1E7 (antibody, V domains shown)
VH: QVQLKESGPGLVAPSQSLSITCTVSGFSLTNFGIHWVRQPPGKGLEWLGVIWSGGGTNYNSALMSRLSISKDNSKSQVFLKMNSLQTDDTAIYYCVSIYYRGFDSWGQGTTLTVSS
VL: DVFMTQAPLSLPVSLGDQASISCRSSQSIVHSNGNTYLEWYLQKPGQSPKLLIYRVSNRFSGVPDRFSGSGSGTDFTLKISRVEAEDLGVYYCFQGSHVPLTFGAGTRLELK
notes: Murine hybridoma antibody raised against human EMR1-Fc; Hybridoma supernatant was used in the screening
B1: the binding result in the assay with CD97 was “no binding”; in the assay with EMR2 it was “no binding”; in assay [1], “binds”.

B2: chimeric 19-1E7 IgG1k antibody (c1E7) (antibody, V domains shown)
VH: B1 VH
VL: B1 VL
notes: 19-1E7 variable regions combined with human gamma-1 Fc and kappa constant regions (IgG1 kappa); Made in fucosylated (CHOK1 SV) and non-fucosylated (MS704-PF) forms; also called chimeric 1E7
As for B2, the binding result with Peptide 1, with Peptide 4 and in the assay with Peptide 7 was “binds” throughout.
